Measured values: patent US20240350583A1, “COMPOSITION FOR PREVENTING OR TREATING FIBROTIC DISEASES, COMPRISING HAPLN1” (Chung Ang University Industry Academic Cooperation …, priority 2021, published 2024)

How the values were obtained:
Format in all cases: cell-based
[1] = system: renal proximal tubule epithelial cell (RPTEC); assay: Age-induced fibrosis of RPTEC (passage 11), αSMA immunofluorescence; conditions: aged cells (11th passage culture), 72 hours
Protocol: (1) Renal proximal tubule epithelial cell ([…]) in 12-well plates and cultured in complete renal epithelial cell medium (ATCC PCS-400-030+ATCC PCS-400-040) in an incubator at 37° C. 5% CO2 for 24 hours.
(2) Subsequently, the plates were then treated with the composition of the present disclosure (rhHAPLN1 protein content of 0, 10, 20, 50 and 100 ng/ml) and pirfenidone 0.2 mg/mL (200 μg/mL), respectively, and cultured for 72 hours.
(3) Afterwards, each well was washed twice with PBS, then treated with 4% paraformaldehyde and fixed for 1 hour.
(4) After washing four times with 1×PBS, the wells were treated with 1×PBST (1×PBS+0.1% Triton X-100) containing 1% BSA and blocked for 2 hours.
(5) Primary antibody against αSMA (Abcam ab7817) was diluted 1:200 in 1×PBSTdp and treated and incubated overnight at 4° C.
(6) The next day, the blot was washed four times with 1×PBST.
(7) After treatment with secondary antibody (anti-mouse IgG Alexa Fluor™ 488 1:500 (Invitrogen, A28175)) and DAPI 1:2000 (Invitrogen, D1306), the cells were incubated at room temperature for 1 hour.
(8) Afterwards, 50 ul of Vectashield (Vectorlabs, H-1000) was added, covered with a coverslip, and photographed with a fluorescence microscope.

[2] = system: normal human lung fibroblast (NHLF); assay: TGFβ1-induced fibrosis of normal human lung fibroblasts, αSMA western blot
Protocol: (1) normal human lung fibroblasts (NHLF) cultured for 9 passages were seeded (1.0×10^5 cells/well) in a 6-well plate and incubated in FBM-2 (Fibroblast Growth Medium-2, CC-3131, Lonza) medium for 24 hours in an incubator at 37° C. 5% CO2. (2) After replacing with serum-free medium, the medium was incubated for 24 hours.
(3) In this regard, under conditions in which fibrosis was induced by treatment with TGFβ1 (10 ng/ml), each well of the plate was treated with the composition of the present disclosure with rhHAPLN1 protein content of 0, 3.1, 12.5, 25 and 100 ng/ml and 100 μg/mL and 200 μg/mL of pirfenidone (Selleckchem), respectively, and incubated for 24 hours.
(4) Afterwards, each sample was washed twice with phosphate buffered saline (PBS, pH 7.2), and then the expression level of αSMA, a marker for myofibroblasts, was confirmed by western blot.

[3] = system: human colon fibroblast cell line (CCD-18Co); assay: TGFβ1-induced fibrosis of human colon fibroblast cell line, αSMA western blot
Protocol: (1) A human colon fibroblast cell line (CCD-18Co (human colon fibroblast cell line; ATCC, CRL-1459)) was seeded (1.5×10^5 cells/well) in a 6-well plate according to the experimental scheme in FIG. 3A and incubated in Eagle's minimum essential medium (EMEM) medium including 10% fetal bovine serum (FBS) for 24 hours in an incubator at 37° C. and 5% CO2.
(2) After replacing with serum-free EMEM medium, the medium was incubated for 24 hours.
(3) The plates were then treated with TGF-β (10 ng/ml) to induce fibrosis and incubated for 24 hours.
(4) Afterwards, each well of the plate was then treated with the composition of the present disclosure at rhHAPLN1 protein content of 0, 3, 10, 30, and 100 ng/ml and pirfenidone 100 μg/mL and 200 μg/mL, respectively, and incubated for 24 hours.
(5) Each sample was then treated with cell lysis buffer and harvested.
(6) Western blot was performed on the samples. Here, anti-αSMA Ab (Abcam, ab7817), anti-GAPDH Ab (Santa Cruz, sc-32233) were used as primary antibodies and HRP-conjugated anti-mouse IgG Ab (CST, #7076) as secondary antibodies to confirm the protein expression levels of αSMA and GAPDH.

[4] = system: human cardiac microvascular endothelial cell (HCMEC); assay: TGFβ1-induced fibrosis of human cardiac microvascular endothelial cells, αSMA western blot
Protocol: (1) Primary human cardiac microvascular endothelial cell (HCMEC; ScienCell, #6000) were seeded (5.7×10^4 cells/well) in a 6-well plate according to the experimental scheme of FIG. 4A and incubated in Endothelial cell medium (ScienCell) for 24 hours in an incubator at 37° C. 5% CO2.
(2) The plates were then treated with TGFβ1 (5 ng/ml) to induce fibrosis and incubated for 3 days.
(3) Afterwards, each well of the plate was then treated with the composition of the present disclosure at rhHAPLN1 protein content of 0, 3, 10, 30, and 100 ng/ml and pirfenidone 100 μg/mL and 200 μg/mL, respectively, and incubated for 3 days.
(4) Each sample was then treated with cell lysis buffer and harvested.
(5) Western blotting was performed on the samples. Here, anti-αSMA Ab (Abcam, ab7817), anti-GAPDH Ab (Santa Cruz, sc-32233) were used as primary antibodies and HRP-conjugated anti-mouse IgG Ab (CST, #7076) as secondary antibodies to confirm the protein expression levels of αSMA and GAPDH.

[5] = all rhHAPLN1 contents, pirfenidone 100 and 200 μg/mL

Cc1ccc(=O)n(-c2ccccc2)c1 [pirfenidone, reference compound]
αSMA stained fluorescent areas (FIG. 10B) ([1]; pirfenidone 0.2 mg/ml): fewer stained fluorescent areas appeared | anti-fibrotic effect (expression level of αSMA compared to composition without rhHAPLN1) ([2]; pirfenidone 100 and 200 μg/mL): no anti-fibrotic effect | inhibition at 100 µg/mL ([3]; Homo sapiens, CCD-18Co, pirfenidone 100 μg/mL): 10.6% | relative level of αSMA (value used in the inhibition formula; TGFβ1 alone 3.82, untreated 1) ([3]; pirfenidone 100 μg/mL): 3.52 | expression level of αSMA at 200 μg/mL versus 100 μg/mL ([3]; pirfenidone 200 μg/mL): higher expression level of αSMA than 100 μg/mL | expression level of αSMA compared to composition that does not include rhHAPLN1 protein ([4]; pirfenidone 100 and 200 μg/mL): higher than when treated with a composition that does not include rhHAPLN1 protein

B1: rhHAPLN1: recombinant human HAPLN1 protein of SEQ ID NO: 1 produced in CHO-K1 cells, stabilized in acetic acid buffer, sucrose, PS80, pH 5.0 (protein, listed as Homo sapiens)
chain: MKSLLLLVLISICWADHLSDNYTLDHDRAIHIQAENGPHLLVEAEQAKVFSHRGGNVTLPCKFYRDPTAFGSGIHKIRIKWTKLTSDYLKEVDVFVSMGYHKKTYGGYQGRVFLKGGSDSDASLVITDLTLEDYGRYKCEVIEGLEDDTVVVALDLQGVVFPYFPRLGRYNLNFHEAQQACLDQDAVIASFDQLYDAWRGGLDWCNAGWLSDGSVQYPITKPREPCGGQNTVPGVRNYGFWDKDKSRYDVFCFTSNFNGRFYYLIHPTKLTYDEAVQACLNDGAQIAKVGQIFAAWKILGYDRCDAGWLADGSVRYPISRPRRRCSPTEAAVRFVGFPDKKHKLYGVYCFRAYN
αSMA stained fluorescent areas compared to composition without rhHAPLN1 (FIG. 10B) ([1]; rhHAPLN1 50 ng/ml and 100 ng/ml): fewer stained fluorescent areas appeared | expression level of αSMA compared to composition that does not include rhHAPLN1 protein (FIG. 5B) ([2]; TGFβ1 10 ng/ml, rhHAPLN1 3.1, 12.5, 25, 100 ng/ml, 24 hours): significantly lower | anti-fibrotic action from αSMA western blot band, compared to pirfenidone (FIG. 5A) [2, 5]: much better anti-fibrotic action compared to pirfenidone | anti-fibrotic efficacy relative to pirfenidone at 100 μg/mL and at 200 μg/mL ([2]; rhHAPLN1 12.5 ng/ml): about twice as higher | rhHAPLN1 protein content showing the most excellent anti-fibrotic efficacy ([2]; αSMA): 12.5 ng/mL | expression level of αSMA compared to composition that does not include rhHAPLN1 protein (FIG. 3C) ([3]; TGFβ1 10 ng/ml 24 h, then rhHAPLN1 3, 10, 30, 100 ng/ml 24 h): significantly lower | anti-fibrotic action from αSMA western blot band, compared to pirfenidone (FIG. 3B) [3, 5]: much better anti-fibrotic action compared to pirfenidone | anti-fibrotic efficacy of rhHAPLN1 relative to pirfenidone at 100 μg/mL ([3]; rhHAPLN1 10 ng/ml): approximately 7 folds | anti-fibrotic efficacy relative to pirfenidone at 200 μg/mL ([3]; rhHAPLN1 10 ng/ml): much higher than twice | inhibition of TGFβ1-induced αSMA ([3]; rhHAPLN1 10 ng/ml): 71.6% | relative level of αSMA (value used in the inhibition formula; TGFβ1 alone 3.82, untreated 1) ([3]; rhHAPLN1 10 ng/ml): 1.8 | rhHAPLN1 protein content showing the most excellent anti-fibrotic efficacy ([3]; αSMA): 10 ng/mL | expression level of αSMA compared to composition that does not include rhHAPLN1 protein (FIG. 4C) ([4]; TGFβ1 5 ng/ml 3 days, then rhHAPLN1 3, 10, 30, 100 ng/ml 3 days): significantly lower | anti-fibrotic action from αSMA western blot band, compared to pirfenidone (FIG. 4B) [4, 5]: much better anti-fibrotic action compared to pirfenidone | rhHAPLN1 protein content showing the most excellent anti-fibrotic efficacy ([4]; αSMA): 3 ng/mL
